Source: article PMC3037348, “Epstein-Barr Virus Nuclear Antigen 3C Facilitates G1-S Transition by Stabilizing and Enhancing the Function of Cyclin D1” (PLoS Pathogens, 2011)

Target: flag-tagged Cyclin D1 (UniProt P24385 1-295)
Test: cell-based or functional assay

Sequence of flag-tagged Cyclin D1 (P24385 whole entry): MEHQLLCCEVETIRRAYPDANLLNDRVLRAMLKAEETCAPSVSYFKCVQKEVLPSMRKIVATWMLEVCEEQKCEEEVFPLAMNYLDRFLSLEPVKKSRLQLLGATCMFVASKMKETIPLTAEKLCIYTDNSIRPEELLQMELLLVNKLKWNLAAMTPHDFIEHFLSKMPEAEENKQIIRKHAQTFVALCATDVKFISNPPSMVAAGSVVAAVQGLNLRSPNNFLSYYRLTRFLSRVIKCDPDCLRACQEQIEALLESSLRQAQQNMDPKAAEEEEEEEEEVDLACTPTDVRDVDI

B1: myc-tagged full-length EBNA3C (residues 1-992) (natural protein)
chain: MESFEGQGDSRQSPDNERGDNVQTTGEHDQDPGPGPPSSGASERLVPEESYSRDQQPWGQSRGDENRGWMQRIRRRRRRRAALSGHLLDTEDNVPPWLPPHDITPYTARNIRDAACRAVKQSHLQALSNLILDSGLDTQHILCFVMAARQRLQDIRRGPLVAEGGVGWRHWLLTSPSQSWPMGYRTATLRTLTPVPNRVGADSIMLTATFGCQNAARTLNTFSATVWTPPHAGPREQERYAREAEVRFLRGKWQRRYRRIYDLIELCGSLHHIWQNLLQTEENLLDFVRFMGVMSSCNNPAVNYWFHKTIGNFKPYYPWNAPPNENPYHARRGIKEHVIQNAFRKAQIQGLSMLATGGEPRGDATSETSSDEDTGRQGSDVELESSDDELPYIDPNMEPVQQRPVMFVSRVPAKKPRKLPWPTPKTHPVKRTNVKTSDRSDKAEAQSTPERPGPSEQSSVTVEPAHPTPVEMPMVILHQPPPVPKPVPVKPTPPPSRRRRGACVVYDDDVIEVIDVETTEDSSSVSQPNKPHRKHQDGFQRSGRRQKRAAPPTVSPSDTGPPAVGPPAAGPPAAGPPAAGPPAAGPPAAGPPAAGPRILAPLSAGPPAAGPHIVTPPSARPRIMAPPVVRMFMRERQLPQSTGRKPQCFWEMRAGREITQMQQEPSSHLQSATQPTTPRPSWAPSVCALSVMDAGKAQPIESSHLSSMSPTQPISHEEQPRYEDPDAPLDLSLHPDVAAQPAPQAPYQGYQEPPAPQAPYQGYQEPPPPQAPYQGYQEPPAHGLQSSSYPGYAGPWTPRSQHPCYRHPWAPWSQDPVHGHTQGPWDPRAPHLPPQWDGSAGHGQDQVSQFPHLQSETGPPRLQLSLVPLVSSSAPSWSSPQPRAPIRPIPTRFPPPPMPLQDSMAVGCDSSGTACPSMPFASDYSQGAFTPLDINATTPKRPRVEESSHGPARCSQATAEAQEILSDNSEISVFPKDAKQTDYDASTESELD
In the case of B1, the “in vitro kinase activity of flag-Cyclin D1/CDK6 immunoprecipitates toward histone H1, HEK 293T cells transfected with increasing amounts of myc-EBNA3C vector (0, 5, 15 µg)” value is reported as 1.6 fold and the “in vitro kinase activity of flag-Cyclin D1/CDK6 immunoprecipitates toward recombinant GST-pRb (residues 792-928), HEK 293T cells transfected with increasing amounts of myc-EBNA3C vector (0, 5, 15 µg)” value is reported as 2.3 fold.
